These are literature values, as cited in paper PMC6893859 (Regulatory toxicology and pharmacology : RTP, 2018).

Series [1] has as its system patients. The conditions noted are these: human, in vivo.
Series [2] deals with humans. The conditions noted are these: human, in vivo.

Take “CER-001: complex between recombinant human ApoA-I and dipalmitoyl phosphatidylcholine and sphingomyelin”: the safety and tolerability result in series [1] was “safe and well tolerated”. Take “CSL-112: reformulated reconstituted and purified ApoA1 (from CSL-111)”: the tolerability result in series [2] was “well tolerated”.
